# “And” between values parts separate entries of the source, which are not always exact repeats. Identical values can stand only once.
# Tests used:
# [1] = tested on: IL-2/IL-25-treated human PBMC; assay: IL-5 release from IL-2/IL-25-treated human PBMC; assay type: cell-based; details: SM17 0.16 ng/mL to 5 mg/mL; 10 unit/mL IL-2, 10 μg/mL IL-25; 72 hours; dose dependent
# Protocol: PBMC (Ixcells, San Diego, CA) co-cultured with IL-2 and IL-25 (PeproTech, Cranbury, NJ) can lead to the release of IL-5, a cytokine known to exacerbate the conditions of asthma. Accordingly, the inhibitory effect of SM17 on IL-5 release from IL-2/IL-25-treated human PBMC was evaluated. Briefly, cryopreserved human PBMC were thawed and cultured in RPMI-1640 medium supplemented with 10% Fetal Bovine Serum (Thermo Fisher Scientific). Serially diluted SM17 at concentrations ranging from 0.16 ng/mL to 5 mg/mL were added to 4×10^5 of human PBMC in the presence of 10 unit/mL of IL-2 and 10 μg/mL of IL-25. Non-specific human IgG4 (SinoBiological) was used as the control antibody. Treated cells were incubated for 72 hours at 37° C., and the level of IL-5 release in the culture supernatant was measured by standard ELISA assay (R&D systems). […] Results are presented as means±SEM. One Way ANOVA, Dunnett's Multiple Comparison Test, *: P<0.05; **: P<0.01.
# IL-33 = molecular target: T1, IL-33 (Homo sapiens, UniProt O95760); assay: Bio-Layer Interferometry (Octet), binding kinetics of bsBp to human IL-33
# T1 construct: purchased R&D systems
# T1 sequence (O95760 95-270): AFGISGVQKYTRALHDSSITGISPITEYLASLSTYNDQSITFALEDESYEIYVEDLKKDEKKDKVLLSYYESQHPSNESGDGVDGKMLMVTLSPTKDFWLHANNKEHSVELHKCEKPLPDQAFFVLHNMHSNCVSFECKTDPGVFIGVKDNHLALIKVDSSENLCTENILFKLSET
# Protocol: The binding affinity of bsBp to the targeted alarmins was determined using a bio-Layer Interferometry analysis (Octet ReD96 system, Sartorius). bsBp or SM17 (20 μg/mL) was immobilized on biosensors via binding to anti-human Fab CH1 region; serially diluted human IL33 and TSLP (158.7 nM, 79.4 nM, 39.7 nM) (R&D systems) were added to plot the association and dissociation curve according to the manufacturer's specification. Biosensors immobilized with irrelevant antibody (SM03, anti-human CD22 chimeric IgG1 antibody, SinoMab BioScience Limited, 20 μg/mL) were used as control reference.
# [2] = molecular target: T2, rhesus monkey IL17RB expressed on HEK293 cells (Macaca mulatta, UniProt H9FWT9); assay: Flow cytometry, SM17 binding to HEK293 transfected with rhesus monkey IL-17RB; details: SM17 1 μg/ml
# T2 construct: transfected either with full-length human or rhesus monkey IL-17RB (SinoBiological, Beijing, China); host or cells: HEK293
# T2 sequence (H9FWT9 18-502): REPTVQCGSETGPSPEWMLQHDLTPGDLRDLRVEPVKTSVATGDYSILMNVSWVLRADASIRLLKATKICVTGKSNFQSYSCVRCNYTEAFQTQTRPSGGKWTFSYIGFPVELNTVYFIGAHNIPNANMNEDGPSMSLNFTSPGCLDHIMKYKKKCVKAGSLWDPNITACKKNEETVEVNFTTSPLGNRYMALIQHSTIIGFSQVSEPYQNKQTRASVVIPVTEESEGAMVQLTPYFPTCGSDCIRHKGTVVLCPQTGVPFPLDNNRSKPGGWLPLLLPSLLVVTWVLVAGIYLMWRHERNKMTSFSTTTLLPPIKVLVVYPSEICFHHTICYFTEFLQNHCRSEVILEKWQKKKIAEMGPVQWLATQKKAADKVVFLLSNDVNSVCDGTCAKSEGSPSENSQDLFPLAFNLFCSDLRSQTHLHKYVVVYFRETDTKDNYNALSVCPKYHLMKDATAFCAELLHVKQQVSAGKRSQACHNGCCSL
# Protocol: HEK293 cells (ATCC, Manassas, VA) transfected either with full-length human or rhesus monkey IL-17RB (SinoBiological, Beijing, China) were examined for binding to SM17 following standard protocol for flow cytometry. Wild-type HEK293 stained with IgG4 isotype control (Sino Biological) was used as the negative control and for gating purpose. Briefly, HEK293 cells at a density of 3×10^5 cells were seeded into each well of a 6-well plate. On the next day, human or rhesus Il-17RB full length cDNA were first cloned into pCMV3-untagged expression plasmid through standard molecular cloning technique, and then expression plasmids for human or rhesus IL-17RB were transfected into HEK293 cells by lipofection (Lipofectamine 3000 reagent; Thermo Fisher Scientific). Transfected cells were trypsinized, harvested, and fixed with 4% paraformaldehyde (5 minutes). SM17, or human IgG4 control at 1 μg/ml in washing buffer (3% BSA in PBS) were added to the resuspend cells for incubation at RT for 30 min before Alexa Fluor® 647-conjugated goat anti-human IgG specific antibody (1:2000 dilution in washing buffer) (Jackson ImmunoResearch) was added for flow cytometry analysis using the BD FACSVerse cell analyzer (Becton Dickenson, Franklin Lakes, NJ).
# Cyno-IL17RB = assay: Bio-Layer Interferometry (Octet), SM17 binding kinetics to cynomolgus IL17RB; design: species or system cynomolgus monkey; details: trials 1 and 2
# Protocol: (§1) Bio-Layer Interferometry analysis (Octet ReD96 system, Sartorius) was employed to determine the binding affinity of SM17 against human and cynomolgus monkey IL17RB protein (R&D systems). Briefly, SM17 (20 μg/mL) was immobilized on biosensors via interactions with anti-human Fab CH1; serially diluted Cyno-IL17RB and Human-IL17RB (at a concentration of 158.7 nM, 79.4 nM and 39.7 nM, respectively) were subsequently added following standard operation protocols of the Octet ReD96 system to plot out the association and dissociation curve. Irrelevant antibody (SM03, anti-human CD22 chimeric IgG1 antibody, SinoMab BioScience Limited) was used as the control reference. Of note, the KD is within picomolar-single digit nanomolar range.
# IL-17RB = molecular target: T3, IL-17RB (Homo sapiens, UniProt Q9NRM6); assay: Bio-Layer Interferometry (Octet), SM17 binding kinetics to human IL17RB; details: trials 1 and 2
# T3 construct: purchased R&D systems
# T3 sequence (Q9NRM6 18-502): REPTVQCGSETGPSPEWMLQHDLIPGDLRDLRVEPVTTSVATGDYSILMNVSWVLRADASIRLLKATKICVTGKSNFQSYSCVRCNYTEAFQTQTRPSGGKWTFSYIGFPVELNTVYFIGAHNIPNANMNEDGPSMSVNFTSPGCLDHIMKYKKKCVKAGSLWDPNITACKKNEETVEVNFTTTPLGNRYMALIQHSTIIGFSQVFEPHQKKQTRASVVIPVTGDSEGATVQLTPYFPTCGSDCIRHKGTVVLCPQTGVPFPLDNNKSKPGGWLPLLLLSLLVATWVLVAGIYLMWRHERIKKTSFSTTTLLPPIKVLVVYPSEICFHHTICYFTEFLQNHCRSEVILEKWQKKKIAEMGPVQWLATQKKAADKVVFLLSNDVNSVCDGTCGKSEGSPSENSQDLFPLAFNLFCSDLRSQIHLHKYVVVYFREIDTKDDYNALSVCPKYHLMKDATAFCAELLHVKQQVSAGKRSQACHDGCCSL
# Protocol: as §1
substance,measurement,setting,value
"SM17: humanized anti-IL17RB monoclonal antibody, human IgG4 isotype; HC SEQ ID NO: 32, LC SEQ ID NO: 33",release of IL-5 from human PBMC induced with IL-2 and IL-25 (in words),[1],suppressed the release of IL-5
same,Kd,IL-33,659 µM
same,Kdis,IL-33,17.9 s⁻¹
same,Ka,IL-33; bsBp or SM17 immobilized at 20 μg/mL,27200 M⁻¹ s⁻¹
same,binding of SM17 to RhIL17RB-HEK293,[2],39%
same,Ka,Cyno-IL17RB,32100 M⁻¹ s⁻¹ and 42100 M⁻¹ s⁻¹
same,Kdis,Cyno-IL17RB,2.73e-05 s⁻¹ and 0.000215 s⁻¹
same,Ka,IL-17RB,222000 M⁻¹ s⁻¹ and 183000 M⁻¹ s⁻¹

# From US20240409647A1, “BISPECIFIC BINDING PROTEINS AGAINST ALARMINS AND USES THEREOF” (SINOMAB BIOSCIENCE LIMITED, priority 2022, published 2024)
